Changes are numbered by the printed parent chain.
Tests used:
[1] = molecular target: T1, Human PD-L1 His (human PD-L1 ECD with C-terminal His tag) (human, UniProt Q9NZQ7 19-238); assay: ELISA, biotin-PD-L1 to plate-bound PD-1, antibody titrated
T1 construct: Biotinylated in ELISA and AlphaScreen assays; also called hPD-L1-his; biotinylated PD-L1 his
Procedure: (§1) Excess protein was removed by washing with PBS-Tween (0.1% v/v) and the wells were blocked with 1% w/v bovine serum albumin (BSA, Sigma) in PBS for 1 hour at room temperature, after which plates were washed with PBS-Tween as above. 60 μL of a titration (three-fold serial dilution) of antibody was added to a 96-well, non-binding plate diluted in ELISA assay buffer (PBS +0.1% BSA). […] The plate was incubated for 30 minutes before transferring 50 μL to the coated plates. The coated plates were incubated for 1 hour at room temperature. Excess protein was removed by washing with PBS-Tween (0.1% v/v). PD-L1 binding was detected using streptavidin labelled europium (Perkin Elmer) diluted 1/1000 in DELFIA assay buffer (Perkin Elmer). The plates were washed with TBS (Tris buffered saline)-Tween (0.1% v/v) and 50 μL/well of DELFIA Enhancement solution (Perkin Elmer) was added to the plate. Time-resolved fluorescence was measured at 615 nm on an Envision plate reader (PerkinElmer). Percentage specific binding was calculated as defined in Equation 3. IC50 values were determined using GraphPad Prism software by curve fitting using a four-parameter logistic equation (Equation 4). Values for KM121 antibodies are a mean of three independent experiments. Values for KM122 are from a single experiment.

[2] = molecular target: T1, Human PD-L1 His (human PD-L1 ECD with …); assay: ELISA, biotin-PD-L1 to plate-bound CD80, antibody titrated
Procedure: as §1

[3] = molecular target: T2, Mouse PD-L1 ECD His (mouse, UniProt Q9EP73 19-239); assay: SPR 25C and 37C
T2 construct: also called mouse PD-L1 (his-tagged)
T2 sequence (Q9EP73 other isoform, or with tags, fused parts or gaps): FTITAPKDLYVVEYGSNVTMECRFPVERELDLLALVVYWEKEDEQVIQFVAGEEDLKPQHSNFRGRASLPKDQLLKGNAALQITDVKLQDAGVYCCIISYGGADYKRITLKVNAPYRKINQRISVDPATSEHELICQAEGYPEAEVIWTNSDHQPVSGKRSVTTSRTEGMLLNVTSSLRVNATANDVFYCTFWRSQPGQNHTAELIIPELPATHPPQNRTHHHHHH

[4] = molecular target: T1, Human PD-L1 His (human PD-L1 ECD with …); assay: SPR 25C, antibody captured, PD-L1 analyte
Procedure: (§2) Label-free surface plasmon resonance (SPR) analysis was carried out on the ProteOn XPR36 (BioRad) array SPR machine. An anti-human IgG capture surface was created on a GLC biosensor chip using a combination of anti-human Fc antibodies (Jackson Labs 09-005-008,109-006-008 and 309-006-008) by amine coupling. […] The data was analysed using the 1:1 model inherent to the ProteOn XPR36 analysis software.

[5] = molecular target: T3, Cyno PD-L1 FLAG (cynomolgus PD-L1 ECD with FLAG tag) (cynomolgus monkey); assay: SPR 25C, antibody captured, PD-L1 analyte
T3 construct: also called cynomolgus monkey PD-L1-FLAG
T3 sequence (chain, as listed by the source limits assumed): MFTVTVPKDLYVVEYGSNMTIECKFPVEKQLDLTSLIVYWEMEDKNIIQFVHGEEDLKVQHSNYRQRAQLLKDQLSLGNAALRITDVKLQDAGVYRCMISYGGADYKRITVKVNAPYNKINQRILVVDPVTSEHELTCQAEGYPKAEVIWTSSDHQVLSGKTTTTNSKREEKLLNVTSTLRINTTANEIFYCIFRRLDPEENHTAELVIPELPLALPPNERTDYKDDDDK
Procedure: as §2

[6] = molecular target: T4, Human PD-L1 expressed on cells (human, UniProt Q9NZQ7 19-290); assay: cell-based or functional assay
T4 sequence (Q9NZQ7 19-290 limits assumed): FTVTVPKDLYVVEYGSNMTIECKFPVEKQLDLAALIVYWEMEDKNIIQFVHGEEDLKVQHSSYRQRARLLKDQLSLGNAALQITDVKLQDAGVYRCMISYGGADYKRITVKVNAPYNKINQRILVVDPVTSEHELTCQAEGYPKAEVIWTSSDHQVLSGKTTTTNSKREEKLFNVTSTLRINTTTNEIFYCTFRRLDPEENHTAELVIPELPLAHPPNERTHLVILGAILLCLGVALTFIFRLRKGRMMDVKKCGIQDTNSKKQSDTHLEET

[7] = molecular target: T4, Human PD-L1 expressed on cells; assay: cell-based or functional assay; remark: listed apart in the source
[8] = molecular target: T4, Human PD-L1 expressed on cells; assay: flow cytometry on CHO hPD-L1 cells, competitor biotin-CD80-Fc, n = 1
Procedure: (§3) 150 μL FACS buffer is added and cells washed as described above. […] Cells are incubated at 4° C. for 60 minutes. Cells are washed twice with 150 μL FACS buffer, centrifuging at 300 g for 3 minutes after each wash step and aspirating supernatant. Cells are fixed, washed and resuspended for analysis as above. APC signal intensity (geometric mean) is measured by flow cytometry using a Beckman Coulter CYTOFLEX instrument. Data is plotted as percentage of receptor binding.
(§4) All other steps are performed as per plate 2.

[9] = molecular target: T4, Human PD-L1 expressed on cells; assay: flow cytometry on CHO hPD-L1 cells, competitor biotin-PD-1-Fc, n = 1
Procedure: as §3

[10] = molecular target: T4, Human PD-L1 expressed on cells; assay: cell-based or functional assay; remark: listed apart in the source
[11] = molecular target: T4, Human PD-L1 expressed on cells; assay: flow cytometry on CHO hPD-L1 cells, competitor biotin-PD-1-Fc, n = 2
Procedure: as §3

[12] = molecular target: T4, Human PD-L1 expressed on cells; assay: flow cytometry on CHO hPD-L1 cells, competitor biotin-CD80-Fc, n = 2
Procedure: as §3, §4

[13] = molecular target: T1, Human PD-L1 His (human PD-L1 ECD with …); assay: SPR 37C, antibody captured, PD-L1 analyte
[14] = molecular target: T3, Cyno PD-L1 FLAG (cynomolgus PD-L1 ECD …); assay: SPR 37C, antibody captured, PD-L1 analyte
[15] = molecular target: T1, Human PD-L1 His (human PD-L1 ECD with …); assay: SPR 25C, antibody captured, PD-L1 analyte; remark: listed apart in the source

T1 sequence (Q9NZQ7 19-238 limits assumed): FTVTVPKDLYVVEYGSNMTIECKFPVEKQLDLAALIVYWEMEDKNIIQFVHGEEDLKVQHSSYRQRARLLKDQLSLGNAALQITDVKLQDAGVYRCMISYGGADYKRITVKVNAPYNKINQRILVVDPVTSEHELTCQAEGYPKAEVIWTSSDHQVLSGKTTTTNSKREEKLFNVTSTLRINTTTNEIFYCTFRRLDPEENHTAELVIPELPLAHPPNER

B1: 413D08 (antibody, human IgG1, kappa, V domains shown)
VH: QVQLVESGGGVVQPGRSLRLSCAASGFTFRIYGMHWVRQAPGKGLEWVAVIWYDGSNKYYADSVKGRFTISRDNSDNTLYLQMNSLRAEDTAVYYCARDMDYFGMDVWGQGTTVTVSS
VL: DLQMTQSPSSLSASVGDRVTITCRASQGIRNDLGWYQQKPGKAPKRLIYAASSLQSGVPSRFSGSGSGTEFTLTISSLQPEDFATYYCLQHNSYPRTFGQGTKVEIKR
B1 gave an IC50 [1] of 1.2 nM and an IC50 [2] of 0.67 nM.

B2: 413G05 (antibody, human IgG1, kappa, V domains shown)
VH: QVQLVESGGGLVKPGGSLRLSCAASGFTFSDYYMSWIRQVPGKGLEWVSYISTSGSTIYYADSVKGRFTISRDNAKNSLYLQMNSLRAEDAAVYHCARGITGTNFYHYGLGVWGQGTTVTVSS
VL: DIQMTQSPSSVSASVGDRVTITCRASQGINSWLAWYQQKPGKAPKLLIYAASTLQSGVPSRFSGSGSGADFTLTISSLQPEDFATYYCQQVNSFPLTFGGGTKVEIKR
For B2, the binding result [3] was “no binding”, the Kd [4] was 0.024 nM and the Kd [5] was 0.015 nM. For the same binder, the “EC50, IL-2 induction, murine T cell hybridoma assay, n = 1” value [6] was 0.29 nM, the “EC50, IL-2 induction, murine T cell hybridoma assay, n = 2” value [6] was 0.11 nM and the “EC50, IL-2 induction, murine T cell hybridoma assay, n = 3” value [6] was 0.29 nM. For the same binder, the “mean EC50, IFNγ induction, monocyte-T cell co-culture” value [7] was 0.082 nM, the “mean fold increase IFNγ, monocyte-T cell co-culture” value [7] was 2.85 fold and the IC50 [8] was 1.09 nM. For the same binder, the IC50 [1] was 2.02 nM, the IC50 [2] was 1.1 nM and the IC50 [9] was 1.07 nM. For the same binder, the “EC50, ADCC reporter assay, n = 1” value [10] was 0.0219 nM, the “EC50, ADCC reporter assay, n = 2” value [10] was 0.0209 nM and the “EC50, ADCC reporter assay, n = 3” value [10] was 0.0275 nM. The “max fold induction, ADCC reporter assay, n = 1” value [10] was 13.2 fold, the “max fold induction, ADCC reporter assay, n = 2” value [10] was 16.4 fold and the “max fold induction, ADCC reporter assay, n = 3” value [10] was 23.4 fold. The IC50 [11] was 1.17 nM, the IC50 [12] was 1.17 nM and the Kd [13] was 0.05 nM. The Kd [14] was 0.046 nM.

B3: 411B08 (antibody, human IgG1, kappa, V domains shown)
VH: EVQLVESGGGLVQPGGSLRLSCAASGFTFSSYWMSWVRQAPGKGLEWVANIKEDGSEKYYVDSVKGRFTISRDNAKNSLYLQMNSLRAEDTSVYYCARNRLYSDFLDNWGQGTLVTVSS
VL: DIQMTQSPSSVSASVGDRVTITCRASQGVSSWLAWYQQKSGKAPKLLIYGASSLQSGVPSRFSGSGSGTEFILTISSLQPEDFATYYCQQANSIPFTFGPGTKVDIKR
Binder B3 has an IC50 [1] of 2.22 nM and an IC50 [2] of 1.6 nM.

B4: 385F01 (antibody, human IgG1, kappa, V domains shown)
VH: B3 VH
VL: B3 VL
Work on B4 yielded an IC50 [1] of 2.25 nM and an IC50 [2] of 1.76 nM.

B5: 411C04 (antibody, human IgG1, kappa, V domains shown)
VH: B3 VH with E6D, V64L, N99V, N108Y
VL: B3 VL with T74S
B5 was tested, and the IC50 [1] was 2.45 nM and the IC50 [2] was 1.93 nM.

B6: 411D07 (antibody, human IgG1, kappa, V domains shown)
VH: QVQLQESGPGLVKPSGTLSLTCIVSGGSIISSDWWNWVRQPPGKGLEWIGEIFHSGRTNYNPSLKSRVTISIDKSKNQFSLRLSSVTAADTAVYYCARDGSGSYWGQGTLVTVSS
VL: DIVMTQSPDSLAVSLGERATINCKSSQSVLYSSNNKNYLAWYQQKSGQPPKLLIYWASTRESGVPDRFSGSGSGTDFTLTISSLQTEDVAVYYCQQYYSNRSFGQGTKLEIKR
B6 gave an IC50 [2] of 9.06 nM.

B7: 386H03 (antibody, human IgG1, kappa, V domains shown)
VH: B6 VH with I23A, I30S, N36S, R57N, I72V, F79I, S84N, A97V
VL: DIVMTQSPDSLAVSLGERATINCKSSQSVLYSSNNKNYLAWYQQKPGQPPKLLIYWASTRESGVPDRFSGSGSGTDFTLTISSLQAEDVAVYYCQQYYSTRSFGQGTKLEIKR
B7 showed an IC50 [2] of 0.74 nM.

B8: 1D05 V to A & F to S change in VH (Seq ID No: 342), IgG1 disabled (LAGA), with 1D05 kappa (antibody, V domains shown)
VH: EVQLVESGGGLVQPGRSLRLSCAASGFTFDDYAMHWVRQAPGKGLEWVSGISWIRTGIGYADSVKGRFTISRDNAKNSLYLQMNSLRAEDTALYYCAKDMKGSGTYGGWFDTWGQGTLVTVSS
VL: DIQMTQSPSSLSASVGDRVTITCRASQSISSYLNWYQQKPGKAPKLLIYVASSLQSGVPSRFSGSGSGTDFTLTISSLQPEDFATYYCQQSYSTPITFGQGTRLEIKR
notes: Entry 342 is a whole heavy chain; also called 1D05 HC mutant 4
For B8, the Kd [15] was 0.23 nM.

Reference: patent US20210380699A1 (published 2021)
